Holding throughout (assay): cross-linking + ELISA
For orientation: In an ELISA, binding on a coated surface is turned into a signal by an enzyme label.

The target of one test is TcpP-K102E (V. cholerae) (UniProt P29485).
The target of a further test is TcpP-N99D (V. cholerae) (UniProt P29485).
The target of test [1] is TcpP-HSV (wild-type, from pEK41) (V. cholerae) (UniProt P29485).

Take “ToxR (wild-type, expressed from the chromosomal toxR locus) (from UniProt P15795 1-294) (natural protein)”: the percent reduction in ToxR interaction relative to wild-type TcpP-HSV with TcpP-K102E (V. cholerae) and in the test with TcpP-N99D (V. cholerae) was 50% in each case. For “ToxR-L107A (chromosomally expressed) (from UniProt P15795 1-294) (natural protein)”, the percent reduction in TcpP interaction relative to wild-type ToxR in test [1] was 70%. With “ToxR-T91A (chromosomally expressed) (from UniProt P15795 1-294) (natural protein)”, the percent reduction in TcpP interaction relative to wild-type ToxR in test [1] was 45%.

Consider “ToxR-V97A (chromosomally expressed) (from UniProt P15795 1-294) (natural protein)”, for which, in test [1], the percent defect in TcpP interaction relative to wild-type ToxR was > 60%. As for “ToxR-Y96A (chromosomally expressed) (from UniProt P15795 1-294) (natural protein)”, in test [1], the percent reduction in TcpP interaction relative to wild-type ToxR worked out at 40%.

For the origin of these results see paper PMC6733452.
